# According to article PMC8655031, “Loss of peptidase D binding restores the tumor suppressor functions of oncogenic p53 mutants” (Communications Biology, 2021):
# B1: recombinant human PEPD (peptidase D), C-terminal His tagged (enzyme, UniProt P12955 1-493, looked up)
# chain: MAAATGPSFWLGNETLKVPLALFALNRQRLCERLRKNPAVQAGSIVVLQGGEETQRYCTDTGVLFRQESFFHWAFGVTEPGCYGVIDVDTGKSTLFVPRLPASHATWMGKIHSKEHFKEKYAVDDVQYVDEIASVLTSQKPSVLLTLRGVNTDSGSVCREASFDGISKFEVNNTILHPEIVECRVFKTDMELEVLRYTNKISSEAHREVMKAVKVGMKEYELESLFEHYCYSRGGMRHSSYTCICGSGENSAVLHYGHAGAPNDRTIQNGDMCLFDMGGEYYCFASDITCSFPANGKFTADQKAVYEAVLRSSRAVMGAMKPGVWWPDMHRLADRIHLEELAHMGILSGSVDAMVQAHLGAVFMPHGLGHFLGIDVHDVGGYPEGVERIDEPGLRSLRTARHLQPGMVLTVEPGIYFIDHLLDEALADPARASFLNREVLQRFRGFGGVRIEEDVVVTDSGIELLTCVPRTVEEIEACMAGCDKAFTPFSGPK
# notes: human peptidase D (PEPD, prolidase), from pBAD/TOPO-human PEPD-His; the discussion speaks of PEPD as 493 aa; also called prolidase; PEPD-His; source: E. coli One Shot TOP10, purified (Ni-NTA)
# Assays:
# [1] = target: T1, recombinant human p53, N-terminal His tagged (human, UniProt P04637 1-393); test: cross-linking; PEPD (801 nM) and p53 or p53^R175H (114 nM), alone or together, in PBS pH 7.4 for 15 min at RT, then 2 mM BS3 for 30 min at RT; WB on 5% SDS-PAGE; details: both partners purified
# T1 construct: human p53 from pET15b-His-human p53; also called His-human p53; source: E. coli BL21-AI, purified (Ni-NTA)
# [2] = target: the molecule itself; test: as above
binder,measurement,setting,value
B1,stoichiometry N,[1],1 PEPD dimer per p53 tetramer
same,stoichiometry N,[2],2
